Experiments:
[1] = biological target: the molecule itself; test: not stated; purification of recombinant Fre (Figure S6); how the dimer was shown is not told
[2] = biological target: the molecule itself; test: SEC; purified MupA alone, at the lower concentrations (not above 2 mg/ml)
[3] = biological target: the molecule itself; test: SEC; purified MupA alone, at higher concentrations (>2 mg/ml)

B1: Fre (enzyme, E. coli, UniProt P0AEN1 1-233, looked up)
chain: MTTLSCKVTSVEAITDTVYRVRIVPDAAFSFRAGQYLMVVMDERDKRPFSMASTPDEKGFIELHIGASEINLYAKAVMDRILKDHQIVVDIPHGEAWLRDDEERPMILIAGGTGFSYARSILLTALARNPNRDITIYWGGREEQHLYDLCELEALSLKHPGLQVVPVVEQPEAGWRGRTGTVLTAVLQDHGTLAEHDIYIAGRFEMAKIARDLFCSERNAREDRLFGDAFAFI
notes: NAD(P)H:flavin oxidoreductase Fre of E. coli (GenBank M61182); Purified as the expected dimer; also called oxidoreductase Fre; E. coli Fre; source: E. coli, overexpressed, purified
Q: Which “stoichiometry N” value [1] does the source give for B1 here?
A: 2

B2: MupA (enzyme, Pseudomonas fluorescens, UniProt Q9AH80 1-369, looked up)
chain: MSVEQLLGLGVTNAARAPRQPAFSLLFFSDVREDISASEKYEFARSLTLFGDAQGFEAVYFPERHFHEFGAIYPDSAVMAASLIPQTRHIRFRTAGISLPLHHPARVVESWSMNDVLSGGRVDLGFGSGWSRPDFLLAPHAYEDRREVMWQRIEQVRRLWAGERLSFPGPGGDPVSVVTFPRPLQTSLNVWILVAQNTESFIAAGKAGFNVFTMLYGIDLPDLAEKIGLYRQARRDAGFDPASGRVTLMLHTLVGPDSAWVRRAVEAPFKDYIRSSLVAHMKARATPDGRPLDATEQENVLQYAFERYYETGALFGTVDEVRYRVGQVLETGVDEIACLMDFGVDYAVVHQSLPYLEQLVASFQERSAQ
notes: MupA, predicted FMNH2-dependent monooxygenase of the mupirocin biosynthetic gene cluster of Pseudomonas fluorescens NCIMB 10586; Dimer by SEC, dimer of dimers above 2 mg/ml; Used unlabelled in the NMR titrations; they may stand in the Supporting Information; also called flavin-dependent monooxygenase MupA; FMO; source: cloned, over-expressed and purified to homogeneity
Q: With B2 as the protein, how does the “stoichiometry N” value [2] read?
A: 2

Q: And the “stoichiometry N” value [3]?
A: 4
